Reference: patent US20260218135A1 (REGENTS OF THE UNIVERSITY OF COLORADO A BODY CORPORATE, published 2026)

B1: N-terminal fragment of HA-PEG10 (22 kDa self-cleavage product, N-terminal ~100 amino acids) (other, Homo sapiens, UniProt Q86TG7 1-111, looked up)
chain: MTERRRDELSEEINNLREKVMKQSEENNNLQSQVQKLTEENTTLREQVEPTPEDEDDDIELRGAAAAAAPPPPIEEECPEDLPEKFDGNPDMLAPFMAQCQIFMEKSTRDF
notes: A band on the blot; The construct that mimics it (AA1-111) is m6; also called NTF; shorter proteolytically cleaved N-terminal fragment; not shown: 2x HA tag (N-terminal) of the parent HA-PEG10 construct
B2: HA-N-terminal fragment construct (2x HA-tagged human PEG10, AA1-111) (other, Homo sapiens, UniProt Q86TG7 1-111, looked up)
chain: B1 chain
notes: range 1-111; Truncation construct that mimics the natural self-cleavage of PEG10; also called HA-NTF; not shown: 2x HA tag (N-terminal)
B3: HA-capsid^CTD (human PEG10, AA161-259, 1x HA C-terminal) (other, Homo sapiens, UniProt Q86TG7 161-259, looked up)
chain: PQRREVAKRKIRRLRQGMGSVIDYSNAFQMIAQDLDWNEPALIDQYHEGLSDHIQEELSHLEVAKSLSALIGQCIHIERRLARAAAARKPRSPPRALVL
notes: range 161-259; not shown: 1x HA tag (C-terminal)

Assays:
[1] = target: HA-PEG10 gag-pol (2x HA-tagged human PEG10, AA1-708) (Homo sapiens) (UniProt Q86TG7); experiment: cell-based or functional assay
[2] = target: T1, FLAG-HsRTL8c-3'UTR (3x FLAG-tagged human RTL8c, AA1-113) (Homo sapiens, UniProt A6ZKI3 1-113); experiment: crosslinking co-immunoprecipitation, IP-FLAG, HEK293 lysate, western blot
T1 construct: range 1-113; Expressed in HEK293 cells from pcDNA3.1; also called FLAG-RTL8c; human FLAG-RTL8; not shown: 3x FLAG tag (N-terminal)
Excerpt: HA-PEG10 was visible as four distinct bands representing gag-pol, gag, and two self-cleavage products generated via activity of the PEG10 protease domain^{16,36,37}. The 37 kDa band represents a retrovirus-like capsid fragment, and the 22 kDa band reflects a protein fragment consisting of the N-terminal ~100 amino acids of the protein (referred to as the ‘N-terminal fragment’, or ‘NTF’) 16. Upon immunoprecipitation of HA-PEG10, Applicants observed co-immunoprecipitation of FLAG-RTL8c (FIG. 3a).
Beads were first crosslinked to antibodies. Primary antibodies (5 μg) or isotype controls (5 μL) were incubated with 40 μL protein A (Invitrogen) or protein G (Pierce) bead slurry for 30 min to couple antibodies to beads. After coupling, beads were collected by centrifugation and the supernatant discarded. Unless otherwise stated, all incubations and washes were performed with end-over-end rotation at room temperature. All centrifugation to collect beads was performed 2,500×g for 2 min. Beads were washed twice (1 mL 0.2M sodium borate, pH 9 for 1 min), resuspended in 400 μL 20 mM dimethyl pimelimidate (DMP, Thermo) and incubated for 30 min to crosslink antibodies. After crosslinking, beads were washed twice (1 mL 0.2M ethanolamine (EMD Millipore) pH 8 for 5 min) and incubated in 1.4 mL 0.2M ethanolamine for two hr. Beads were then washed twice (1 mL PBS for 5 min). […]

[3] = target: T1, FLAG-HsRTL8c-3'UTR (3x FLAG-tagged …); experiment: co-immunoprecipitation with FLAG-RTL8c, western blot (FIG. S6b)

T1 sequence (A6ZKI3 whole entry, the tested form may be a part): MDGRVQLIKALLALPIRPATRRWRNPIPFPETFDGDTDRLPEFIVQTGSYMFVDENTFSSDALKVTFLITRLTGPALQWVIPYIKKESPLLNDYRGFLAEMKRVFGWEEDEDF

Row | Molecule | binding result [2] | further results
1 | HA-HsRTL8c-3'UTR (2x HA-tagged human RTL8c, AA1-113) (from UniProt A6ZKI3 1-113) | – | abundance of HA-RTL8c relative to HA-PEG10 in the VLP fraction (western blot) [1]: 5%
2 | B1 | no binding | –
3 | B2 | – | binding result [3]: no binding
4 | B3 | no binding | –
